Laboratory results from article PMC6297355 (2018).

Molecular target: HSPB1c/Hsp27c (model human HSPB fragment) (human, UniProt P04792 80-176)
Assay: ITC

Sequence of HSPB1c/Hsp27c (model human HSPB fragment) (P04792 80-176): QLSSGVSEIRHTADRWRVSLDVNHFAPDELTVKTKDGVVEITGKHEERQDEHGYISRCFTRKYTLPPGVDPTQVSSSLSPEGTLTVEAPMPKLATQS

Row | Kd [µM] | Binder
1 | > 100 | BAG3 with deletion of both IPV motifs (recombinant) (natural protein) not shown
2 | 0.49 | BAG3^WT (recombinant) (natural protein) not shown
3 | 2 | BAG3 with complete deletion of the IPV2 motif (recombinant) (natural protein) not shown
